B1: S. cerevisiae Abp1 (full length; SH3 domain 535-592 mutated) / Hua2 (parent)
chain 1: MALEPIDYTTHSREIDAEYLKIVRGSDPDTTWLIISPNAKKEYEPESTGSSFHDFLQLFDETKVQYGLARVSPPGSDVEKIIIIGWCPDSAPLKTRASFAANFAAVANNLFKGYHVQVTARDEDDLDENELLMKISNAAGARYSIQTSSKQQGKASTPPVKKSFTPSKSPAPVSKKEPVKTPSPAPAAKISSRVNDNNDDDDWNEPELKERDFDQAPLKPNQSSYKPIGKIDLQKVIAEEKAKEDPRLVQKPTAAGSKIDPSSDIANLKNESKLKRDSEFNSFLGTTKPPSMTESSLKNDDDKVIKGFRNEKSPAQLWAERKAKQNSGNAETKAEAPKPEVPEDEPEGEPDVKDLKSKFEGLAASEKEEEEMENKFAPPPKKSEPTIISPKPFSKPQEPVKAEEAEQPKTDYKKIGNPLPGMHIEADNEEEPEENDDDWDDDEDEAAQPPLPSRNVASGAPVQKEEPEQEEIAPSLPSRNSIPAPKQEEAPEQAPEEEIEEEAEEAAPQLPSRSSAAPPPPPRRATPEKKPKENPWATAEYDYDAAEDNELTFVENDKIINIEFVDDDWWLGELEKDGSKGLFPSNYVSLGN
chain 2: MQQTKFGKMYLDHDSVVEYSEDEIVEADRITLGYKKRLSMIENQMRHLLEDFSLDVQQIEPILADLQKYYDAFLQLLQKRNKSLQCKRSTHQPVPSPMNSQTSTNAKVNLSGKLMKFQLNSVQKFDEENILRILQNKIEFEHYFQIDKGKKQKVLLLAVYQCLNGPTRLHKVLNIEGIIHNNSIRTILGKQVSSSKWTVFLYDVKLVLLAHRQDVPNLETSKMIVRYGDLFPCALYFKDHTAY

Variants of: B1
Experiment: DHFR protein-fragment complementation in yeast (Abp1-DHFR F[1,2] x partner-DHFR F[3]), deep mutational scanning, second methotrexate selection vs reference
Conditions: with Hua2; S. cerevisiae, DHFR-PCA selection in liquid with methotrexate at 30 C, two 72 h selections (the score uses the second); reference = the pre-selection culture; not an affinity; value at the no-binding floor (a bound); scale: DMS score: mean over two replicates of log2(f_test/f_ref + 0.5)/ln 2, minus the synonymous-codon median

Row | Variant | screen value
1 | chain 1 MALEPIDYTTHSREIDAEYLKIVRGSDPDTTWLIISPNAKKEYEPESTGSSFHDFLQLFDETKVQYGLARVSPPGSDVEKIIIIGWCPDSAPLKTRASFAANFAAVANNLFKGYHVQVTARDEDDLDENELLMKISNAAGARYSIQTSSKQQGKASTPPVKKSFTPSKSPAPVSKKEPVKTPSPAPAAKISSRVNDNNDDDDWNEPELKERDFDQAPLKPNQSSYKPIGKIDLQKVIAEEKAKEDPRLVQKPTAAGSKIDPSSDIANLKNESKLKRDSEFNSFLGTTKPPSMTESSLKNDDDKVIKGFRNEKSPAQLWAERKAKQNSGNAETKAEAPKPEVPEDEPEGEPDVKDLKSKFEGLAASEKEEEEMENKFAPPPKKSEPTIISPKPFSKPQEPVKAEEAEQPKTDYKKIGNPLPGMHIEADNEEEPEENDDDWDDDEDEAAQPPLPSRNVASGAPVQKEEPEQEEIAPSLPSRNSIPAPKQEEAPEQAPEEEIEEEAEEAAPQLPSRSSAAPPPPPRRATPEKKPKENPWATAEYDYDAAEDNELTFVENDKIINIEFVDDDWWLGELEKDGSKGLNPSNYVSLGN [chain 1 F583N] | < -3.06
2 | chain 1 MALEPIDYTTHSREIDAEYLKIVRGSDPDTTWLIISPNAKKEYEPESTGSSFHDFLQLFDETKVQYGLARVSPPGSDVEKIIIIGWCPDSAPLKTRASFAANFAAVANNLFKGYHVQVTARDEDDLDENELLMKISNAAGARYSIQTSSKQQGKASTPPVKKSFTPSKSPAPVSKKEPVKTPSPAPAAKISSRVNDNNDDDDWNEPELKERDFDQAPLKPNQSSYKPIGKIDLQKVIAEEKAKEDPRLVQKPTAAGSKIDPSSDIANLKNESKLKRDSEFNSFLGTTKPPSMTESSLKNDDDKVIKGFRNEKSPAQLWAERKAKQNSGNAETKAEAPKPEVPEDEPEGEPDVKDLKSKFEGLAASEKEEEEMENKFAPPPKKSEPTIISPKPFSKPQEPVKAEEAEQPKTDYKKIGNPLPGMHIEADNEEEPEENDDDWDDDEDEAAQPPLPSRNVASGAPVQKEEPEQEEIAPSLPSRNSIPAPKQEEAPEQAPEEEIEEEAEEAAPQLPSRSSAAPPPPPRRATPEKKPKENPWATAEYDYDAAEDNELTFVENDKIINIEFVDDDWWLGELEKDGSKGLPPSNYVSLGN [chain 1 F583P] | < -3.06
3 | chain 1 MALEPIDYTTHSREIDAEYLKIVRGSDPDTTWLIISPNAKKEYEPESTGSSFHDFLQLFDETKVQYGLARVSPPGSDVEKIIIIGWCPDSAPLKTRASFAANFAAVANNLFKGYHVQVTARDEDDLDENELLMKISNAAGARYSIQTSSKQQGKASTPPVKKSFTPSKSPAPVSKKEPVKTPSPAPAAKISSRVNDNNDDDDWNEPELKERDFDQAPLKPNQSSYKPIGKIDLQKVIAEEKAKEDPRLVQKPTAAGSKIDPSSDIANLKNESKLKRDSEFNSFLGTTKPPSMTESSLKNDDDKVIKGFRNEKSPAQLWAERKAKQNSGNAETKAEAPKPEVPEDEPEGEPDVKDLKSKFEGLAASEKEEEEMENKFAPPPKKSEPTIISPKPFSKPQEPVKAEEAEQPKTDYKKIGNPLPGMHIEADNEEEPEENDDDWDDDEDEAAQPPLPSRNVASGAPVQKEEPEQEEIAPSLPSRNSIPAPKQEEAPEQAPEEEIEEEAEEAAPQLPSRSSAAPPPPPRRATPEKKPKENPWATAEYDYDAAEDNELTFVENDKIINIEFVDDDWWLGELEKDGSKGLRPSNYVSLGN [chain 1 F583R] | -3.02

The next lines start with the values.

Row | screen value | Variant
4 | < -3.06 | chain 1 MALEPIDYTTHSREIDAEYLKIVRGSDPDTTWLIISPNAKKEYEPESTGSSFHDFLQLFDETKVQYGLARVSPPGSDVEKIIIIGWCPDSAPLKTRASFAANFAAVANNLFKGYHVQVTARDEDDLDENELLMKISNAAGARYSIQTSSKQQGKASTPPVKKSFTPSKSPAPVSKKEPVKTPSPAPAAKISSRVNDNNDDDDWNEPELKERDFDQAPLKPNQSSYKPIGKIDLQKVIAEEKAKEDPRLVQKPTAAGSKIDPSSDIANLKNESKLKRDSEFNSFLGTTKPPSMTESSLKNDDDKVIKGFRNEKSPAQLWAERKAKQNSGNAETKAEAPKPEVPEDEPEGEPDVKDLKSKFEGLAASEKEEEEMENKFAPPPKKSEPTIISPKPFSKPQEPVKAEEAEQPKTDYKKIGNPLPGMHIEADNEEEPEENDDDWDDDEDEAAQPPLPSRNVASGAPVQKEEPEQEEIAPSLPSRNSIPAPKQEEAPEQAPEEEIEEEAEEAAPQLPSRSSAAPPPPPRRATPEKKPKENPWATAEYDYDAAEDNELTFVENDKIINIEFVDDDWWLGELEKDGSKGLMPSNYVSLGN [chain 1 F583M]
5 | < -3.06 | chain 1 MALEPIDYTTHSREIDAEYLKIVRGSDPDTTWLIISPNAKKEYEPESTGSSFHDFLQLFDETKVQYGLARVSPPGSDVEKIIIIGWCPDSAPLKTRASFAANFAAVANNLFKGYHVQVTARDEDDLDENELLMKISNAAGARYSIQTSSKQQGKASTPPVKKSFTPSKSPAPVSKKEPVKTPSPAPAAKISSRVNDNNDDDDWNEPELKERDFDQAPLKPNQSSYKPIGKIDLQKVIAEEKAKEDPRLVQKPTAAGSKIDPSSDIANLKNESKLKRDSEFNSFLGTTKPPSMTESSLKNDDDKVIKGFRNEKSPAQLWAERKAKQNSGNAETKAEAPKPEVPEDEPEGEPDVKDLKSKFEGLAASEKEEEEMENKFAPPPKKSEPTIISPKPFSKPQEPVKAEEAEQPKTDYKKIGNPLPGMHIEADNEEEPEENDDDWDDDEDEAAQPPLPSRNVASGAPVQKEEPEQEEIAPSLPSRNSIPAPKQEEAPEQAPEEEIEEEAEEAAPQLPSRSSAAPPPPPRRATPEKKPKENPWATAEYDYDAAEDNELTFVENDKIINIEFVDDDWWLGELEKDGSKGLQPSNYVSLGN [chain 1 F583Q]

Source: publication PMC7954794, “Protein context shapes the specificity of SH3 domain-mediated interactions in vivo” (Nature Communications, 2021)
